These results are taken from patent US20240124605A1 (published 2024).

The target in assay [1] is T1, CD123 expressed on the surface of cells (OCI-AML2, MOLM13, NALM6-CD123+) (human, UniProt P26951 19-378).
T1 chain: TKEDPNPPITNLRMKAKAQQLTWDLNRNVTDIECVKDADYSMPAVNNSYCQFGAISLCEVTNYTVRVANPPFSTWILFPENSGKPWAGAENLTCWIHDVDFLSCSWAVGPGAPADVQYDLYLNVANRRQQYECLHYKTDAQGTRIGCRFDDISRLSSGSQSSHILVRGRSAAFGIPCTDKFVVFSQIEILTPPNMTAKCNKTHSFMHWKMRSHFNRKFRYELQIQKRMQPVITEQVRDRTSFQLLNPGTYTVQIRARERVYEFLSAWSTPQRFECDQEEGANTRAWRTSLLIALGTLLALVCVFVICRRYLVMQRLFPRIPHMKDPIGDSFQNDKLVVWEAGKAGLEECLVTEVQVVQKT
As to the kind of experiment: flow cytometry.

The target in assay [2] is T2, CD123-Fc (Sino Biological) (human, UniProt P26951 19-305).
T2 construct: Bought reagent; not shown: Fc of the bought fusion (detected with anti-human Fc, captured on AHC sensor)
T2 sequence: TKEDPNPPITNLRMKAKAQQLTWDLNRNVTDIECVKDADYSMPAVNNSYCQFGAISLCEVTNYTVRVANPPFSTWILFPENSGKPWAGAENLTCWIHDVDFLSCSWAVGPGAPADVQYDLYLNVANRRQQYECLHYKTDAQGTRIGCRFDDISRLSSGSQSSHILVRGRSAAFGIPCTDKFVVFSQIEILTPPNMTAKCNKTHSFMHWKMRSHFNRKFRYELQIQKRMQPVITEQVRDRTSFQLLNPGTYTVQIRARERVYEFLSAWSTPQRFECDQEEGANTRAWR
As to the kind of experiment: method not stated in the sentence (BLI of Adapters follows).

Assay [3] deals with T2, CD123-Fc (Sino Biological). As to the kind of experiment: BLI (Octet), CD123-Fc captured on AHC sensor, Adapter 500-0.69 nM in solution, global 1:1 fit, 25 C. As for the experimental part: To assess the kinetics of CD123 binding, Adapter proteins comprising the D domains were analyzed using Bio-Layer Interferometry (BLI). Adapter proteins comprising a CD123-binding D domain and a P26(Q26-V229) AFP polypeptide (SEQ ID NO: 39) were generated through transient transfection of HEK-293 cells, followed by Ni-Sepharose Excel (Cytiva) and SEC chromatography. BLI experiments were performed using an Octet RED386 (Sartorius). All experiments were performed at 25° C. in kinetic buffer (PBS, 0.1% BSA, 0.02% tween 20) under constant 1000 rpm agitation. CD123-Fc (20 nM) was captured on an AHC sensor (Sartorius) for 250 seconds to a loading density of ˜0.8 nm. […] The surface was regenerated by 3 rounds of 10 seconds of 10 mM Glycine pH 1.5, followed by kinetic buffer. The data was analyzed using a global fit with a 1:1 interaction model from Sartorius Octet Analysis studio.

The target of assay [4] is T2, CD123-Fc (Sino Biological). As to the kind of experiment: ELISA: MBP fusion captured on anti-MBP antibody, detected with CD123-Fc + anti-human Fc HRP. On the procedure: Parent and mutated variant D domains were expressed as MBP fusions in E. coli (T7 Express, New England Biolabs) by either IPTG (isopropylthio-(3-galactoside) induction for 4 hours at 37° C. in Luria broth containing antibiotics and 0.2% glucose or through auto-induction for 16 hours at 30° C. using MagicMedia (Life Technologies). Post induction, cells were pelleted, washed and resuspended in “leak-out buffer” comprising 200 mM Tris pH 7.5 and 20 mM EDTA. After incubation at 30° C. for 16 hours, supernatant containing MBP fusion proteins were assayed by ELISA for both target binding and expression. Supernatants were added to 96-well Immulon 4HBX microtiter plates coated with anti-MBP polyclonal antibody (Abcam) at 0.0032 ug/ml. Followed by washing, bound MBP fusion proteins were detected either with CD123-Fc (Sino Biological)+anti-human Fc HRP (Abcam) to assess CD123 binding, or with anti-MBP-HRP (New England Biolabs) to assess MBP fusion protein expression.

B1: Adapter protein comprising the 5B1Q D domain and a P26(Q26-V229) AFP polypeptide (designed binder)
chain: MGSWDEFSRRLYAIEWQLYAQGGTEAELAAFEKEIAAFESELQAYKGEGSPEVEKLRELAAVIRENLQAYRHNQESQALAKRSCGLFQKLGEYYLQNAFLVAYTKKAPQLTSSELMAITRKMAATAATCCQLSEDKLLACGEGAADIIIGHLCIRHEMTPVNPGVGQCCTSSYANRRPCFSSLVVDETYVPPAFSDDKFIFHKDLCQAQGVALQTMKQEFLINLVKQKPQITEEQLEAVIADFSGLLEKCCQGQEQEVCFAEEGQKLISKTRAALGV
notes: also called 6T1D(G8S, L21Q, K48E, N50S, I59L); not shown: His tag (purified on Ni-Sepharose)
Molecule B1 gave an EC50 in assay [1] of 3.22 µg/mL. Further, the “fold enhancement of affinity over that of 6T1D” value in assay [2] was around 10 fold. In assay [3], this molecule returned an equilibrium dissociation constant (Kd) of 0.73 nM, an off-rate (koff) of 0.000136 s⁻¹ and a kon of 187000 M⁻¹ s⁻¹.

B2: 5B7L D domain as MBP fusion (designed binder, not shown: large carriers)
chain: MGSWIEFNMRLDAIYERLVALGGSEAELAAFEKEIAAFESELQAYKGKGNPEVEWLRKVAANIRLELQAYRHN
As to B2, the binding result in assay [4] is reported as “binds”.
